Assay results published in paper PMC2888680.

Tests used:
[1] = limited in vitro trypsin proteolysis of purified protein; details: glycan lost; control: wild-type mNEU1
[2] = 4-MU-NANA activity, Phoenix-A lysates, PPCA coexpressed; details: glycan lost; control: wild-type mNEU1
[3] = 4-MU-NANA activity, neu1-/- fibroblasts, PPCA cotransduced; details: glycan lost; control: wild-type mNEU1 coexpressed with PPCA
[4] = anti-NEU1 immunoblot, Phoenix-A lysates; details: glycan lost; control: wild-type mNEU1
[5] = anti-NEU1 immunoblot, transduced NEU1-deficient fibroblasts; details: glycan lost; control: wild-type mNEU1
[6] = 4-MU-NANA activity, neu1-/- fibroblasts, endogenous PPCA only; details: glycan lost; control: wild-type mNEU1

Row | Substance | stability_or_folding [1] | enzymatic_activity, percent_of_wt [2] | enzymatic_activity [3] | expression_or_secretion [4] | expression_or_secretion [5] | enzymatic_activity, percent_of_wt [6]
1 | murine NEU1 (mNEU1): N337D (mut2) | no change | decreases | no change | no change | decreases | –
2 | murine NEU1 (mNEU1): N372D (mut4) | no change | no change | no change | no change | no change | no change
3 | murine NEU1 (mNEU1): N180D (mut1) | decreases | – | – | decreases | – | –
4 | murine NEU1 (mNEU1): N346D (mut3) | no change | decreases | – | no change | decreases | decreases
